From patent US20230250154A1 (CYTONICS, published 2023)

T1: ADAMTS5 (human, UniProt Q9UNA0 262-622, limits assumed)
T1 sequence (looked up): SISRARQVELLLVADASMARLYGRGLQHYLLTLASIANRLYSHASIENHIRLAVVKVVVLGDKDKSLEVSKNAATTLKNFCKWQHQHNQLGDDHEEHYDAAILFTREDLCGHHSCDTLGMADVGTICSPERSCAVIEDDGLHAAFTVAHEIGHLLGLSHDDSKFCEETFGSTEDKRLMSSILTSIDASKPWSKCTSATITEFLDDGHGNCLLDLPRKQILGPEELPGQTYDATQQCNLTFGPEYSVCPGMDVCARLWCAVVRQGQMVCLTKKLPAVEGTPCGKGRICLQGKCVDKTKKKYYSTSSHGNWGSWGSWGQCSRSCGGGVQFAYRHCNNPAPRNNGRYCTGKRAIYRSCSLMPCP

T2: MMP2 (human, UniProt P08253 110-660, limits assumed)
T2 sequence (looked up): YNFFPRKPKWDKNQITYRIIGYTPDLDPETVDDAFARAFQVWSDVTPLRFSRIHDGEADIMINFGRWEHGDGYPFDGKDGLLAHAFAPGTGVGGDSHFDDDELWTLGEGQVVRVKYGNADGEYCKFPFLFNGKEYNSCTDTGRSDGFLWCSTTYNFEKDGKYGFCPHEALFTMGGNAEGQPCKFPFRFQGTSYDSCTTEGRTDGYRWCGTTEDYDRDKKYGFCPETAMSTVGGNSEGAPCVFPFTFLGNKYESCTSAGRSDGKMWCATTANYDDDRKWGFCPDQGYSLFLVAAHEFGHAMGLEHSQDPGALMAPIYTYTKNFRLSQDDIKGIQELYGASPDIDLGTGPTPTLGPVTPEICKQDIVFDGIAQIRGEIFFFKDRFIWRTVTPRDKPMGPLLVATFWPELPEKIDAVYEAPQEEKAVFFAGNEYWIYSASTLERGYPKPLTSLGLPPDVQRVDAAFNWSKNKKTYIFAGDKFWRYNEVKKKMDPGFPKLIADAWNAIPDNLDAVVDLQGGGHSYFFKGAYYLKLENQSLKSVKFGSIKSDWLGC

T3: MMP1 (human, UniProt P03956 100-469, limits assumed)
T3 sequence (looked up): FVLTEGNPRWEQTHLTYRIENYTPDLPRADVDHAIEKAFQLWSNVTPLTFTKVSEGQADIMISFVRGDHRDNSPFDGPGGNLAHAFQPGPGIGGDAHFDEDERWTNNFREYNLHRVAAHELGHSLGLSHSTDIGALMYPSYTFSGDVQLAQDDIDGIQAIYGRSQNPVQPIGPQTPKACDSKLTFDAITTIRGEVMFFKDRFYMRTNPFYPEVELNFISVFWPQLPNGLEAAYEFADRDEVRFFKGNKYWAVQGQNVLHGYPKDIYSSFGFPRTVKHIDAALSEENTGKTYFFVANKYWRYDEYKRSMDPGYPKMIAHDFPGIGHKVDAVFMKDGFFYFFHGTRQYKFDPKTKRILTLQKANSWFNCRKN

T4: ADAMTS4 (human, UniProt O75173 213-685, limits assumed)
T4 sequence (looked up): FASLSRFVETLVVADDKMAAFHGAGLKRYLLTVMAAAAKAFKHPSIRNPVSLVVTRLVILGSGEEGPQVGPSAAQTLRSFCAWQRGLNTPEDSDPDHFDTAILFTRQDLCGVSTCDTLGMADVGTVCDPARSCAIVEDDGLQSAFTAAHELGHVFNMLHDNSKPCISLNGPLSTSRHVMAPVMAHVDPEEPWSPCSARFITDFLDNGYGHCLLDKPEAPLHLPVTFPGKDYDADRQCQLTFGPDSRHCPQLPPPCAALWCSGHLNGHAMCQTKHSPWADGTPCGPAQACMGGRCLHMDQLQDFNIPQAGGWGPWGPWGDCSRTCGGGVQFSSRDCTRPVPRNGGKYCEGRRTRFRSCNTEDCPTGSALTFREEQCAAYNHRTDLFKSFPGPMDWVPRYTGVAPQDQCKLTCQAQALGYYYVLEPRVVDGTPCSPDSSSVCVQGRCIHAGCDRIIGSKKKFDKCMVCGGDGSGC

B1: Variant A2M, bait region SEQ ID NO 108 (other)
chain: SVSGKPQYMVLVPSLLHTETTEKGCVLLSYLNETVTVSASLESVRGNRSLFTDLEAENDVLHCVAFAVPKSSSNEEVMFLTVQVKGPTQEFKKRTTVMVKNEDSLVFVQTDKSIYKPGQTVKFRVVSMDENFHPLNELIPLVYIQDPKGNRIAQWQSFQLEGGLKQFSFPLSSEPFQGSYKVVVQKKSGGRTEHPFTVEEFVLPKFEVQVTVPKIITILEEEMNVSVCGLYTYGKPVPGHVTVSICRKYSDASDCHGEDSQAFCEKFSGQLNSHGCFYQQVKTKVFQLKRKEYEMKLHTEAQIQEEGTVVELTGRQSSEITRTITKLSFVKVDSHFRQGIPFFGQVRLVDGKGVPIPNKVIFIRGNEANYYSNATTDEHGLVQFSINTTNVMGTSLTVRVNYKDRSPCYGYQWVSEEHEEAHHTAYLVFSPSKSFVHLEPMSHELPCGHTQTVQAHYILNGGTLLGLKKLSFYYLIMAKGGIVRTGTHGLLVKQEDMKGHFSISIPVKSDIAPVARLLIYAVLPTGDVIGDSAKYDVENCLANKVDLSFSPSQSLPASHAHLRVTAAPQSVCALRAVDQSVLLMKPDAELSASSVYNLLPEKDLTGFPGPLNDQDDEDCINRHNVYINGITYTPVSSTNEKDMYSFLEDMGLKAFTNSKIRKPKMCPQLEQYEMHGPEGLRVGEAIPMSIPTSEDLVVQIPENFFGVKLRKYFPETWIWDLVVVNSAGVAEVGVTVPDTITEWKAGAFCLSEDAGLGISSTASLRAFQPFFVELTMPYSVIRGEAFTLKATVLNYLPKCIRVSVQLEASPAFLAVPVEKEQAPHCICANGRQTVSWAVTPKSLGNVNFTVSAEALESQELCGTEVPSVPEHGRKDTVIKPLLVEPEGLEKETTFNSLLCPSGGEVSEELSLKLPPNVVEESARASVSVLGDILGSAMQNTQNLLQMPYGCGEQNMVLFAPNIYVLDYLNETQQLTPEIKSKAIGYLNTGYQRQLNYKHYDGSYSTFGERYGRNQGNTWLTAFVLKTFAQARAYIFIDEAHITQALIWLSQRQKDNGCFRSSGSLLNNAIKGGVEDEVTLSAYITIALLEIPLTVTHPVVRNALFCLESAWKTAQEGDHGSHVYTKALLAYAFALAGNQDKRKEVLKSLNEEAVKKDNSVHWERPQKPKAPVGHFYEPQAPSAEVEMTSYVLLAYLTAQPAPTSEDLTSATNIVKWITKQQNAQGGFSSTQDTVVALHALSKYGAATFTRTGKAAQVTIQSSGTFSSKFQVDNNNRLLLQQVSLPELPGEYSMKVTGEGCVYLQTSLKYNILPEKEEFPFALGVQTLPQTCDEPKAHTSFQISLSVSYTGSRSASNMAIVDVKMVSGFIPLKPTVKMLERSNHVSRTEVSSNHVLIYLDKVSNQTLSLFFTVLQDVPVRDLKPAIVKVYDYYETDEFAIAEYNAPCSKDLGNADYKDDDDKGASHHHHHH
B2: Variant A2M, bait region SEQ ID NO 96 (other)
chain: SVSGKPQYMVLVPSLLHTETTEKGCVLLSYLNETVTVSASLESVRGNRSLFTDLEAENDVLHCVAFAVPKSSSNEEVMFLTVQVKGPTQEFKKRTTVMVKNEDSLVFVQTDKSIYKPGQTVKFRVVSMDENFHPLNELIPLVYIQDPKGNRIAQWQSFQLEGGLKQFSFPLSSEPFQGSYKVVVQKKSGGRTEHPFTVEEFVLPKFEVQVTVPKIITILEEEMNVSVCGLYTYGKPVPGHVTVSICRKYSDASDCHGEDSQAFCEKFSGQLNSHGCFYQQVKTKVFQLKRKEYEMKLHTEAQIQEEGTVVELTGRQSSEITRTITKLSFVKVDSHFRQGIPFFGQVRLVDGKGVPIPNKVIFIRGNEANYYSNATTDEHGLVQFSINTTNVMGTSLTVRVNYKDRSPCYGYQWVSEEHEEAHHTAYLVFSPSKSFVHLEPMSHELPCGHTQTVQAHYILNGGTLLGLKKLSFYYLIMAKGGIVRTGTHGLLVKQEDMKGHFSISIPVKSDIAPVARLLIYAVLPTGDVIGDSAKYDVENCLANKVDLSFSPSQSLPASHAHLRVTAAPQSVCALRAVDQSVLLMKPDAELSASSVYNLLPEKDLTGFPGPLNDQDDEDCINRHNVYINGITYTPVSSTNEKDMYSFLEDMGLKAFTNSKIRKPKMCPQLEQYEMHGPEGLRVGEGEGEGEGFYESDVMGRGHARLVHVEEPHTKLLRKYFPETWIWDLVVVNSAGVAEVGVTVPDTITEWKAGAFCLSEDAGLGISSTASLRAFQPFFVELTMPYSVIRGEAFTLKATVLNYLPKCIRVSVQLEASPAFLAVPVEKEQAPHCICANGRQTVSWAVTPKSLGNVNFTVSAEALESQELCGTEVPSVPEHGRKDTVIKPLLVEPEGLEKETTFNSLLCPSGGEVSEELSLKLPPNVVEESARASVSVLGDILGSAMQNTQNLLQMPYGCGEQNMVLFAPNIYVLDYLNETQQLTPEIKSKAIGYLNTGYQRQLNYKHYDGSYSTFGERYGRNQGNTWLTAFVLKTFAQARAYIFIDEAHITQALIWLSQRQKDNGCFRSSGSLLNNAIKGGVEDEVTLSAYITIALLEIPLTVTHPVVRNALFCLESAWKTAQEGDHGSHVYTKALLAYAFALAGNQDKRKEVLKSLNEEAVKKDNSVHWERPQKPKAPVGHFYEPQAPSAEVEMTSYVLLAYLTAQPAPTSEDLTSATNIVKWITKQQNAQGGFSSTQDTVVALHALSKYGAATFTRTGKAAQVTIQSSGTFSSKFQVDNNNRLLLQQVSLPELPGEYSMKVTGEGCVYLQTSLKYNILPEKEEFPFALGVQTLPQTCDEPKAHTSFQISLSVSYTGSRSASNMAIVDVKMVSGFIPLKPTVKMLERSNHVSRTEVSSNHVLIYLDKVSNQTLSLFFTVLQDVPVRDLKPAIVKVYDYYETDEFAIAEYNAPCSKDLGNADYKDDDDKGASHHHHHH

Experiments:
Test in all cases: cell-based or functional assay
chymotrypsin = target: chymotrypsin
Elastase = target: Elastase
bovine trypsin = bovine trypsin (bovine, UniProt P00760 24-246)
ADAMTS5 = target: T1, ADAMTS5
MMP8 = MMP8 (human, UniProt P22894 101-467, limits assumed)
MMP9 = MMP9 (human, UniProt P14780 107-707, limits assumed)
MMP2 = target: T2, MMP2
MMP1 = target: T3, MMP1
ADAMTS4 = target: T4, ADAMTS4
MMP13 = MMP13 (human, UniProt P45452 104-471, limits assumed)
MMP3 = MMP3 (human, UniProt P08254 100-477, limits assumed)
MMP12 = MMP12 (human, UniProt P39900 106-470, limits assumed)
MMP12, sequence (P39900 106-470 limits assumed): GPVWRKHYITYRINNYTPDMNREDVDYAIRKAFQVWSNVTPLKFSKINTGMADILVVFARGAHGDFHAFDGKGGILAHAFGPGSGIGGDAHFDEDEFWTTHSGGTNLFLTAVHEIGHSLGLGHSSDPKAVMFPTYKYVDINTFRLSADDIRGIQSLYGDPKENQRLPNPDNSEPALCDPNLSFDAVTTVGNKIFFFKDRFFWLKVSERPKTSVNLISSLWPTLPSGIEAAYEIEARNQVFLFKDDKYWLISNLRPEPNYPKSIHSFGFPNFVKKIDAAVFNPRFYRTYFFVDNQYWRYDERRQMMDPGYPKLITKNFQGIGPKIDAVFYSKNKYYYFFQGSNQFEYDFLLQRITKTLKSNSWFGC

MMP8, sequence (P22894 101-467 limits assumed): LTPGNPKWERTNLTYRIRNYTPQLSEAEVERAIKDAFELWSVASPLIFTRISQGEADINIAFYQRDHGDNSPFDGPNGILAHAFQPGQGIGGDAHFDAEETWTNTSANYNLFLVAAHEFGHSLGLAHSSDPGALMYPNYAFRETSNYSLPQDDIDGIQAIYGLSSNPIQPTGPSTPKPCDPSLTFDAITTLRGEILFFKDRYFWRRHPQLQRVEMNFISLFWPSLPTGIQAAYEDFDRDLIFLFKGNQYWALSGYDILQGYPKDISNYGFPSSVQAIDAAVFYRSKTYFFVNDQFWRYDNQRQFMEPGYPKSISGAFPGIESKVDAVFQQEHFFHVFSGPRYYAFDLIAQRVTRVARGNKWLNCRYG
MMP3, sequence (P08254 100-477 limits assumed): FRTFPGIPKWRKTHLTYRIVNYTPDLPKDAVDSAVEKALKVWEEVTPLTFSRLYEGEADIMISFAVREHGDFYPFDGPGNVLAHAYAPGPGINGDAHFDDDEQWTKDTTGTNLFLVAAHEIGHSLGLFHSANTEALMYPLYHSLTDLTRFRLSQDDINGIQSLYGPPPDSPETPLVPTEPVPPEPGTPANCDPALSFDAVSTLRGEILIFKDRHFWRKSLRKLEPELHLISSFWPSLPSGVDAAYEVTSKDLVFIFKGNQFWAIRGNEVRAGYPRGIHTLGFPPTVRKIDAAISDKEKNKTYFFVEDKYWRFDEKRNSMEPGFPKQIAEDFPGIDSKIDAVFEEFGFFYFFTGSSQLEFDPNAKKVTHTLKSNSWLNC
MMP9, sequence (P14780 107-707 limits assumed): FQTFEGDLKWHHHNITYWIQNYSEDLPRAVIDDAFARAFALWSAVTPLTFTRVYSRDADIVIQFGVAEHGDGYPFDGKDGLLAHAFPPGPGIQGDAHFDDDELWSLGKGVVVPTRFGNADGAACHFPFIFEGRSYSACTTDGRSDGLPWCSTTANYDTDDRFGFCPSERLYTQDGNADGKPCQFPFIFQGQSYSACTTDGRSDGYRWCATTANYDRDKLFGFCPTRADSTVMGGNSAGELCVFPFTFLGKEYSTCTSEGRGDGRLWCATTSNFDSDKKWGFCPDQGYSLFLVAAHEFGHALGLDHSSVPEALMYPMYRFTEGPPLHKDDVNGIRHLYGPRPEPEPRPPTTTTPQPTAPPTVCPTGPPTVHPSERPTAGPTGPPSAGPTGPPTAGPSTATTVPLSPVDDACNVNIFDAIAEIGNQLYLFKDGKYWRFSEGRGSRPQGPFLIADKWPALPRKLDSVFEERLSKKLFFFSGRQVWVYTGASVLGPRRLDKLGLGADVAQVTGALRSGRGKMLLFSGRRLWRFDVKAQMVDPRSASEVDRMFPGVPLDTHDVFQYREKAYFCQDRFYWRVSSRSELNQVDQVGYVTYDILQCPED
bovine trypsin, sequence (P00760 24-246): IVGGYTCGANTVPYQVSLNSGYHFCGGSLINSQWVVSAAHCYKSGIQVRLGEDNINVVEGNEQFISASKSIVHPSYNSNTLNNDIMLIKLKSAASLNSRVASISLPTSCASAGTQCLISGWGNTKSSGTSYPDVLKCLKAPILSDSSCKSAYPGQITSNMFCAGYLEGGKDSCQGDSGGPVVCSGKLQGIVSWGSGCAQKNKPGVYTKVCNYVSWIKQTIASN

Binder | Protease Inhibition (% of WT) (chymotrypsin) | Protease Inhibition (% of WT) (Elastase) | Protease Inhibition (% of WT) (bovine trypsin) | Protease Inhibition (% of WT) (ADAMTS5) | Protease Inhibition (% of WT) (MMP8) | Protease Inhibition (% of WT) (MMP9) | Protease Inhibition (% of WT) (MMP2) | Protease Inhibition (% of WT) (MMP1) | Protease Inhibition (% of WT) (ADAMTS4) | Protease Inhibition (% of WT) (MMP13) | Protease Inhibition (% of WT) (MMP3) | Protease Inhibition (% of WT) (MMP12)
B1 | 100 % of WT | 50 % of WT | 100 % of WT | 90 % of WT | 40 % of WT | 70 % of WT | 110 % of WT | 390 % of WT | 50 % of WT | 350 % of WT | 330 % of WT | 
B2 |  | 50 % of WT | 100 % of WT | 350 % of WT | 50 % of WT | 70 % of WT | 100 % of WT | 100 % of WT | 250 % of WT | 200 % of WT | 80 % of WT | 100 % of WT
